Measurements published in article PMC12496170.

Target: Spike-Accum bioconjugate (Accum-bioconjugated Sp protein) (SARS-CoV-2) (UniProt P0DTC2)
Assay: cryo-EM structure

Question: Which stoichiometry N does the source give for “Spike-Accum bioconjugate (Accum-bioconjugated Sp protein) (from UniProt P0DTC2 14-1213)” here?
Answer: Its stoichiometry N is 3.
